How the values were obtained:
[1] = biological target: T1, RNA polymerase β subunit (in purified RNAP) (E. coli, UniProt P0A8V2 1-1342); test: cryo-EM structure; purified Eσ^70 incubated with ssrA promoter DNA (threefold excess), then CedA (fivefold molar excess over RNAP); complex repurified on Superose 6 Increase in 30 mM HEPES pH 8.0, 100 mM KCl, 5 mM MgCl2, 0.5 mM TCEP; 2.76 Å; conditions: both partners purified
T1 construct: RNA polymerase β subunit (RpoB), WT E. coli; Stood in the assay as a subunit of the purified RNAPσ70 holoenzyme; also called β-lobe/βi4
T1 sequence (P0A8V2 whole entry): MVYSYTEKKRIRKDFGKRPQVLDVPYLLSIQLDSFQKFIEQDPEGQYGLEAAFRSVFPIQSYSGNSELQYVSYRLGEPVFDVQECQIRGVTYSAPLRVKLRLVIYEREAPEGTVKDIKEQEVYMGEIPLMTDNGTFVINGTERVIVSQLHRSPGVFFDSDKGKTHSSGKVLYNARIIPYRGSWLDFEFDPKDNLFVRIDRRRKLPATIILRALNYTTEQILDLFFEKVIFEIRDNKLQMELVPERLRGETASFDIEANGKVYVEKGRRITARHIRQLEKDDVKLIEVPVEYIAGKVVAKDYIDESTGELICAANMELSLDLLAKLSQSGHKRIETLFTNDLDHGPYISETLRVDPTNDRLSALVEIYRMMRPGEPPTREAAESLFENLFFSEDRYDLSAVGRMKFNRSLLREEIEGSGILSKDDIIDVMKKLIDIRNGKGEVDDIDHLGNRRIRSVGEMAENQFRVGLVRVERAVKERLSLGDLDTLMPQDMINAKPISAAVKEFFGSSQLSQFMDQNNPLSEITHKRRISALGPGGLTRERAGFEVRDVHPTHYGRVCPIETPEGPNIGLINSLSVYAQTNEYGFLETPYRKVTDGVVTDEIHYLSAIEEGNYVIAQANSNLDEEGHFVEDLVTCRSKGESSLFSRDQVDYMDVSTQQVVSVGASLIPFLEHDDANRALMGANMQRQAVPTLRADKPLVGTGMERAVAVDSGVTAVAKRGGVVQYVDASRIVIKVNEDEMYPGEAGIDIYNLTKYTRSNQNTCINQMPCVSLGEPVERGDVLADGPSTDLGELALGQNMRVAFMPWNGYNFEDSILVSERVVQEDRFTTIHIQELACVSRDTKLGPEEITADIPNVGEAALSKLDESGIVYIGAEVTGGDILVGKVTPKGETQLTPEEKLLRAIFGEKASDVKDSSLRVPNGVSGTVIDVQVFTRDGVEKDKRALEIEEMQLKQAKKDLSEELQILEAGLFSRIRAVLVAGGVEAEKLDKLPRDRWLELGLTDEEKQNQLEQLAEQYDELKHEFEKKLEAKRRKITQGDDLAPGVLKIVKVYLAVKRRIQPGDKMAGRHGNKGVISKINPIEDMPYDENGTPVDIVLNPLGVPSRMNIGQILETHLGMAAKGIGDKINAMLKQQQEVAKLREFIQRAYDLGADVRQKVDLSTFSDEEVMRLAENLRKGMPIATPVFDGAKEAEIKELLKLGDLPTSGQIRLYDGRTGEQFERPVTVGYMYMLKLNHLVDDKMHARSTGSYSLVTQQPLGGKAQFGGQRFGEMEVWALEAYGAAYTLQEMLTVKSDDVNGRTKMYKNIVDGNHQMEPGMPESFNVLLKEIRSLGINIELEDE

[2] = biological target: T2, σ^70 (purified) (E. coli, UniProt P00579 1-613); test: as above; conditions: both partners purified
T2 construct: RNA polymerase sigma factor σ70 (RpoD), WT E. coli; also called RpoD
T2 sequence (P00579 whole entry): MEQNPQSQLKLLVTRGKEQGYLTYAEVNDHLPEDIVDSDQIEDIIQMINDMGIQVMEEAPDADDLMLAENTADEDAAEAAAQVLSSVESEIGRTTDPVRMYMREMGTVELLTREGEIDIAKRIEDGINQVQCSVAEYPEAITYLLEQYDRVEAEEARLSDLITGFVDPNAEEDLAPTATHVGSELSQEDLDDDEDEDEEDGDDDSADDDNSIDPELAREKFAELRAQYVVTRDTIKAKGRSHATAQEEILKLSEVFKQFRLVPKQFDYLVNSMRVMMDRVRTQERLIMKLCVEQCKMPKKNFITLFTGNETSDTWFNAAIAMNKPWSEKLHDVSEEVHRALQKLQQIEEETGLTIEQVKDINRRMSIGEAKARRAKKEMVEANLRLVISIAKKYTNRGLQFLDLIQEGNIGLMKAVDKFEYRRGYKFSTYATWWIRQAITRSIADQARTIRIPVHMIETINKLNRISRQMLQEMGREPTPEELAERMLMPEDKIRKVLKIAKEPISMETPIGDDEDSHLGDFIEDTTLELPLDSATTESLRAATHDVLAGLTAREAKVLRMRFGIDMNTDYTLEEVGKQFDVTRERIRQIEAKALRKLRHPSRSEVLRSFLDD

B1: CedA (purified recombinant) (natural protein, E. coli, UniProt P0AE60 1-80, looked up)
chain: MKKPLRQQNRQIISYVPRTEPAPPEHAIKMDSFRDVWMLRGKYVAFVLMGESFLRSPAFTVPESAQRWANQIRQEGEVTE
notes: CedA, E. coli; the open reading frame of cedA amplified from the MG1655 chromosome; also called WT CedA; source: E. coli BL21(DE3), pSumoH10-cedA, purified (HisTrap, Ulp1 tag removal, HiTrap SP, Superdex 75); not shown: 10× His, N-terminal, cleaved; SUMO, N-terminal, cleaved
binding result [1]: binds
binding result [2]: binds

Source: publication PMC10803263, “General transcription factor from Escherichia coli with a distinct mechanism of action” (Nature Structural & Molecular Biology, 2023)
